Assay results as given in article PMC3474606.

Legend:
GRFT D30A (red algae) = GRFT D30A (red algae) (UniProt P84801); assay: AUC
[1] = biological target: recombinant gp120 from HIV-1(ADA) strain (HIV-1 (ADA)); assay: ELISA
[2] = biological target: recombinant gp120 from HIV-1(IIIB) strain, glycosylated (HIV-1 (IIIB)) (UniProt P04578); assay: SPR
[3] = biological target: recombinant gp120 from HIV-1(ADA) strain (HIV-1 (ADA)); assay: SPR
[4] = biological target: recombinant gp41 protein from HIV-1(HxB2) (HIV-1 (HxB2)) (UniProt P04578); assay: SPR
GRFT D112A (red algae) = GRFT D112A (red algae) (UniProt P84801); assay: AUC
[5] = biological target: wild-type griffithsin (GRFT) (red algae) (UniProt P84801); assay: AUC
[6] = biological target: monomeric gp120 derived from HIV-1/JR-FL (HIV-1 (JR-FL)); assay: SPR
[7] = biological target: trimeric gp140 derived from HIV-1/JR-FL (HIV-1 (JR-FL)); assay: SPR

Substance | stoichiometry N (GRFT D30A (red algae)) | fold reduction in binding against wild-type GRFT [1] [fold] | Kd [2] [nM] | Kd [3] [nM] | Kd [4] [nM] | stoichiometry N (GRFT D112A (red algae)) | stoichiometry N [5] | Kd [6] [nM] | Kd [7] [nM]
GRFT D30A (from UniProt P84801 1-121) (natural protein) | 2 | 10 | 0.156 | 0.123 | – | – | – | – | –
GRFT D70A (from UniProt P84801 1-121) (natural protein) | – | 10 | 0.245 | 0.194 | 0.165 | – | – | – | –
GRFT D112A (from UniProt P84801 1-121) (natural protein) | – | 10 | 0.142 | 0.122 | 0.131 | 2 | – | – | –
wild-type griffithsin (GRFT) (from UniProt P84801 1-121) (natural protein) | – | – | 0.0727 | 0.0732 | 0.0449 | – | 2 | 0.111 | 0.152
